Residue numbers refer to the chain shown, from its start.
B1: CE115HA000/GLS3000 S27eA (antibody, IgG1, name in Kabat numbering, V domains shown)
VH: QVQLVESGGGVVQPGRSLRLSCAASGFTFSNAWMHWVRQAPGKGLEWVAQIKAKSNNYATYYAESVKGRFTISRDDSKNSLYLQMNSLKTEDTAVYYCRYVHYGAYYGVDAWGQGTTVTVSS
VL: DIVMTQSPLSLPVTPGEPASISCRSSQSLVHANRNTYLHWYQQKPGQAPRLLIYKVSNRFSGVPDRFSGSGSGTDFTLKISRVEAEDVGVYYCGQGTQVPYTFGQGTKLEIK
notes: one-arm IgG1
B2: CE115HA000/GLS3000 F55H (antibody, IgG1, name in Kabat numbering, V domains shown)
VH: B1 VH
VL: B1 VL with A32S, F60H
notes: one-arm IgG1
B3: CE115HA000/GLS3000 F55D (antibody, IgG1, name in Kabat numbering, V domains shown)
VH: B1 VH
VL: B1 VL with A32S, F60D
notes: one-arm IgG1
B4: CE115HA000/GLS3000 F55L (antibody, IgG1, name in Kabat numbering, V domains shown)
VH: B1 VH
VL: B1 VL with A32S, F60L
notes: one-arm IgG1
B5: CE115HA000/GLS3000 F55N (antibody, IgG1, name in Kabat numbering, V domains shown)
VH: B1 VH
VL: B1 VL with A32S, F60N
notes: one-arm IgG1
B6: CE115HA000/GLS3000 F55E (antibody, IgG1, name in Kabat numbering, V domains shown)
VH: B1 VH
VL: B1 VL with A32S, F60E
notes: one-arm IgG1
B7: CE115HA000/GLS3000 F55A (antibody, IgG1, name in Kabat numbering, V domains shown)
VH: B1 VH
VL: B1 VL with A32S, F60A
notes: one-arm IgG1
B8: CE115HA000/GLS3000 F55M (antibody, IgG1, name in Kabat numbering, V domains shown)
VH: B1 VH
VL: B1 VL with A32S, F60M
notes: one-arm IgG1
B9: CE115HA000/GLS3000 F55K (antibody, IgG1, name in Kabat numbering, V domains shown)
VH: B1 VH
VL: B1 VL with A32S, F60K
notes: one-arm IgG1
B10: CE115HA000/GLS3000 F55G (antibody, IgG1, name in Kabat numbering, V domains shown)
VH: B1 VH
VL: B1 VL with A32S, F60G
notes: one-arm IgG1
B11: CE115HA000/GLS3000 F55I (antibody, IgG1, name in Kabat numbering, V domains shown)
VH: B1 VH
VL: B1 VL with A32S, F60I
notes: one-arm IgG1
B12: GLS3000 V94H (antibody, name in Kabat numbering, V domains shown)
VH: B1 VH
VL: B1 VL with A32S, V99H
notes: one-arm IgG as m2
B13: GLS3000 Y32D (antibody, name in Kabat numbering, V domains shown)
VH: B1 VH
VL: B1 VL with A32S, Y37D
notes: one-arm IgG as m2
B14: GLS3000 V94M (antibody, name in Kabat numbering, V domains shown)
VH: B1 VH
VL: B1 VL with A32S, V99M
notes: one-arm IgG as m2
B15: GLS3000 V94W (antibody, name in Kabat numbering, V domains shown)
VH: B1 VH
VL: B1 VL with A32S, V99W
notes: one-arm IgG as m2
B16: GLS3000 V94K (antibody, name in Kabat numbering, V domains shown)
VH: B1 VH
VL: B1 VL with A32S, V99K
notes: one-arm IgG as m2
B17: GLS3000 V94P (antibody, name in Kabat numbering, V domains shown)
VH: B1 VH
VL: B1 VL with A32S, V99P
notes: one-arm IgG as m2
B18: GLS3000 Y32P (antibody, name in Kabat numbering, V domains shown)
VH: B1 VH
VL: B1 VL with A32S, Y37P
notes: one-arm IgG as m2
B19: GLS3000 V94L (antibody, name in Kabat numbering, V domains shown)
VH: B1 VH
VL: B1 VL with A32S, V99L
notes: one-arm IgG as m2
B20: GLS3000 V94S (antibody, name in Kabat numbering, V domains shown)
VH: B1 VH
VL: B1 VL with A32S, V99S
notes: one-arm IgG as m2
B21: GLS3000 V94N (antibody, name in Kabat numbering, V domains shown)
VH: B1 VH
VL: B1 VL with A32S, V99N
notes: one-arm IgG as m2
B22: GLS3000 Y32F (antibody, name in Kabat numbering, V domains shown)
VH: B1 VH
VL: B1 VL with A32S, Y37F
notes: one-arm IgG as m2
B23: GLS3000 Y96L (antibody, name in Kabat numbering, V domains shown)
VH: B1 VH
VL: B1 VL with A32S, Y101L
notes: one-arm IgG as m2
B24: GLS3000 V94Q (antibody, name in Kabat numbering, V domains shown)
VH: B1 VH
VL: B1 VL with A32S, V99Q
notes: one-arm IgG as m2
B25: GLS3000 Y32A (antibody, name in Kabat numbering, V domains shown)
VH: B1 VH
VL: B1 VL with A32S, Y37A
notes: one-arm IgG as m2
B26: GLS3000 V94Y (antibody, name in Kabat numbering, V domains shown)
VH: B1 VH
VL: B1 VL with A32S, V99Y
notes: one-arm IgG as m2
B27: GLS3000 V94I (antibody, name in Kabat numbering, V domains shown)
VH: B1 VH
VL: B1 VL with A32S, V99I
notes: one-arm IgG as m2
B28: GLS3000 V94R (antibody, name in Kabat numbering, V domains shown)
VH: B1 VH
VL: B1 VL with A32S, V99R
notes: one-arm IgG as m2
B29: GLS3000 Y96E (antibody, name in Kabat numbering, V domains shown)
VH: B1 VH
VL: B1 VL with A32S, Y101E
notes: one-arm IgG as m2
B30: GLS3000 Y96F (antibody, name in Kabat numbering, V domains shown)
VH: B1 VH
VL: B1 VL with A32S, Y101F
notes: one-arm IgG as m2
B31: GLS3000 Y96D (antibody, name in Kabat numbering, V domains shown)
VH: B1 VH
VL: B1 VL with A32S, Y101D
notes: one-arm IgG as m2
B32: GLS3000 V94T (antibody, name in Kabat numbering, V domains shown)
VH: B1 VH
VL: B1 VL with A32S, V99T
notes: one-arm IgG as m2
B33: GLS3000 Y96H (antibody, name in Kabat numbering, V domains shown)
VH: B1 VH
VL: B1 VL with A32S, Y101H
notes: one-arm IgG as m2

What follows are binders tested against T1, CD3 epsilon homodimer protein (UniProt P07766 23-126) (assay: SPR, antibody over immobilised CD3e homodimer;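 note: SPR at 25 °C with CD3 epsilon homodimer amine-coupled to a CM4 sensor chip and antibody flowed over as analyte in HBS-EP+ running buffer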).
T1 construct: also called CD3 (CD3 epsilon)
T1 sequence (P07766 23-126): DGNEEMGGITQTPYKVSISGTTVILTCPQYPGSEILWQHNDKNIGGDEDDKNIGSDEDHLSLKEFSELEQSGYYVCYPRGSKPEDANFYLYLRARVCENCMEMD
Experimental: An appropriate amount of CD3 epsilon homodimer protein was immobilized onto Sensor chip CM4 (GE Healthcare Japan Corp.) by the amine coupling method. Then, the antibody having an appropriate concentration was injected thereto as an analyte and allowed to interact with the CD3 epsilon homodimer protein on the sensor chip. Then, the sensor chip was regenerated by the injection of 10 mmol/L glycine-HCl (pH 1.5). The assay was conducted at 25 degrees C., and HBS-EP+(GE Healthcare Japan Corp.) was used as a running buffer. […] Each parameter was calculated using Biacore T200 Evaluation Software (GE Healthcare Japan Corp.).
B1 was tested, and the “KD ratio to GLS3000” value was 1.01. In the case of B2, the “KD ratio to GLS3000” value is reported as 1.02. With B3 the “KD ratio to GLS3000” value was 1.02. For B4, the “KD ratio to GLS3000” value was 1.43. With B5 the “KD ratio to GLS3000” value was 0.91. B6 was tested, and the “KD ratio to GLS3000” value was 0.92. B7 was tested, and the “KD ratio to GLS3000” value was 1.16. For B8, the “KD ratio to GLS3000” value was 1.29. In the case of B9, the “KD ratio to GLS3000” value is reported as 1.55. B10 was tested, and the “KD ratio to GLS3000” value was 1.15. B11 was tested, and the “KD ratio to GLS3000” value was 1.28.

What follows are binders tested against T2, CD3 epsilon homodimer protein (UniProt P07766 23-126) (assay: SPR Biacore T200, CD3e homodimer on chip, vs unaltered GLS3000 antibody).
T2 construct: also called CD3 (CD3 epsilon)
T2 sequence (P07766 23-126): as above
In the case of B12, the “ratio of amounts bound (Z=Y/X)” value is reported as 0.78. With B13 the “ratio of amounts bound (Z=Y/X)” value was 0.23. For B14, the “ratio of amounts bound (Z=Y/X)” value was 0.44. B15 was tested, and the “ratio of amounts bound (Z=Y/X)” value was 0.58. For B16, the “ratio of amounts bound (Z=Y/X)” value was 0.57. B17 was tested, and the “ratio of amounts bound (Z=Y/X)” value was 1.26. For B18, the “ratio of amounts bound (Z=Y/X)” value was 0.24. With B19 the “ratio of amounts bound (Z=Y/X)” value was 0.44. For B20, the “ratio of amounts bound (Z=Y/X)” value was 0.93. B21 was tested, and the “ratio of amounts bound (Z=Y/X)” value was 1.05. In the case of B22, the “ratio of amounts bound (Z=Y/X)” value is reported as 0.29. B23 was tested, and the “ratio of amounts bound (Z=Y/X)” value was 0.32. For B24, the “ratio of amounts bound (Z=Y/X)” value was 0.76. For B25, the “ratio of amounts bound (Z=Y/X)” value was 0.24. In the case of B26, the “ratio of amounts bound (Z=Y/X)” value is reported as 0.63. With B27 the “ratio of amounts bound (Z=Y/X)” value was 0.66. For B28, the “ratio of amounts bound (Z=Y/X)” value was 0.66. B29 was tested, and the “ratio of amounts bound (Z=Y/X)” value was 0.17. With B30 the “ratio of amounts bound (Z=Y/X)” value was 1.17. In the case of B31, the “ratio of amounts bound (Z=Y/X)” value is reported as 0.17. B32 was tested, and the “ratio of amounts bound (Z=Y/X)” value was 0.93. With B33 the “ratio of amounts bound (Z=Y/X)” value was 0.23.

Reference: patent US20210388087A1 (Chugai, published 2021)
